Reference: publication PMC5291247, “The histone chaperone Vps75 forms multiple oligomeric assemblies capable of mediating exchange between histone H3–H4 tetramers and Asf1–H3–H4 complexes” (Nucleic Acids Research, 2016)

Molecular target: the molecule itself
Assay: crystal structure; Vps75 (1-225) crystallised from the VAH preparation; sitting drop, 0.1 M sodium cacodylate pH 6.5, 25% PEG 4000; four monomers in the asymmetric unit, two tetrameric assemblies in the lattice

B1: Vps75 (1–225) (domain or fragment, UniProt P53853 1-225, looked up)
chain: MMSDQENENEHAKAFLGLAKCEEEVDAIEREVELYRLNKMKPVYEKRDAYIDEIAEFWKIVLSQHVSFANYIRASDFKYIDTIDKIKVEWLALESEMYDTRDFSITFHFHGIEGDFKEQQVTKVFQIKKGKDDQEDGILTSEPVPIEWPQSYDSINPDLIKDKRSPEGKKKYRQGMKTIFGWFRWTGLKPGKEFPHGDSLASLFSEEIYPFCVKYYAEAQRDLED
notes: Vps75, yeast, residues 1-225 (C-terminally truncated), as crystallised; Crystallised from the Vps75-Asf1-H3-H4 preparation; only Vps75 is in the crystal; also called Vps75 tetramer; Vps75 (1-225) dimer
stoichiometry N: 4
